Experimental data as given in article PMC5499591 (Nucleic Acids Research, 2017).
Residue numbers refer to the chain shown, from its start. Names may count otherwise. Each block holds one binder with its values, some of them ahead of it.

How the values were obtained:
GST-Mcm10 (wild type) = target: T1, GST-Mcm10 (wild type) (Saccharomyces cerevisiae, UniProt P32354 1-571); assay: GST pull-down
T1 sequence: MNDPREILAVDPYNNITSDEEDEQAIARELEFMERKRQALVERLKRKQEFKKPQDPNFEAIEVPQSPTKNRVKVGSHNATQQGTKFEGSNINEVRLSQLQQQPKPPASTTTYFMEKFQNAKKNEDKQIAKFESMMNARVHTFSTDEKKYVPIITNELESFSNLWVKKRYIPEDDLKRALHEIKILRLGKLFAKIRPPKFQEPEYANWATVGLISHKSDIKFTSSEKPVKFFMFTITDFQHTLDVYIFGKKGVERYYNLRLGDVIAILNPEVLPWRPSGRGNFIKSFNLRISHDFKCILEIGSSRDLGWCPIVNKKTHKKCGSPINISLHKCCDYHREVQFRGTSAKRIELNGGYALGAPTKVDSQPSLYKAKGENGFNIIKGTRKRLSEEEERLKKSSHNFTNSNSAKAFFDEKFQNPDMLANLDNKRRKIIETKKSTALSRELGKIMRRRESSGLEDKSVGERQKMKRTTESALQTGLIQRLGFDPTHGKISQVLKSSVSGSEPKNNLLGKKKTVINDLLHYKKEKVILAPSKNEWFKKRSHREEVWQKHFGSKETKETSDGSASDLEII

GST-Mcm10-4A = target: T2, GST-Mcm10-4A (Saccharomyces cerevisiae, UniProt P32354 1-571, I26A;L30A;R37A;L40A); assay: GST pull-down
T2 sequence: T1 sequence with I26A, L30A, R37A, L40A

GST-p180 = target: T3, GST-p180 (budding yeast (S. cerevisiae), UniProt P13382 1-1468); assay: pull-down
T3 sequence: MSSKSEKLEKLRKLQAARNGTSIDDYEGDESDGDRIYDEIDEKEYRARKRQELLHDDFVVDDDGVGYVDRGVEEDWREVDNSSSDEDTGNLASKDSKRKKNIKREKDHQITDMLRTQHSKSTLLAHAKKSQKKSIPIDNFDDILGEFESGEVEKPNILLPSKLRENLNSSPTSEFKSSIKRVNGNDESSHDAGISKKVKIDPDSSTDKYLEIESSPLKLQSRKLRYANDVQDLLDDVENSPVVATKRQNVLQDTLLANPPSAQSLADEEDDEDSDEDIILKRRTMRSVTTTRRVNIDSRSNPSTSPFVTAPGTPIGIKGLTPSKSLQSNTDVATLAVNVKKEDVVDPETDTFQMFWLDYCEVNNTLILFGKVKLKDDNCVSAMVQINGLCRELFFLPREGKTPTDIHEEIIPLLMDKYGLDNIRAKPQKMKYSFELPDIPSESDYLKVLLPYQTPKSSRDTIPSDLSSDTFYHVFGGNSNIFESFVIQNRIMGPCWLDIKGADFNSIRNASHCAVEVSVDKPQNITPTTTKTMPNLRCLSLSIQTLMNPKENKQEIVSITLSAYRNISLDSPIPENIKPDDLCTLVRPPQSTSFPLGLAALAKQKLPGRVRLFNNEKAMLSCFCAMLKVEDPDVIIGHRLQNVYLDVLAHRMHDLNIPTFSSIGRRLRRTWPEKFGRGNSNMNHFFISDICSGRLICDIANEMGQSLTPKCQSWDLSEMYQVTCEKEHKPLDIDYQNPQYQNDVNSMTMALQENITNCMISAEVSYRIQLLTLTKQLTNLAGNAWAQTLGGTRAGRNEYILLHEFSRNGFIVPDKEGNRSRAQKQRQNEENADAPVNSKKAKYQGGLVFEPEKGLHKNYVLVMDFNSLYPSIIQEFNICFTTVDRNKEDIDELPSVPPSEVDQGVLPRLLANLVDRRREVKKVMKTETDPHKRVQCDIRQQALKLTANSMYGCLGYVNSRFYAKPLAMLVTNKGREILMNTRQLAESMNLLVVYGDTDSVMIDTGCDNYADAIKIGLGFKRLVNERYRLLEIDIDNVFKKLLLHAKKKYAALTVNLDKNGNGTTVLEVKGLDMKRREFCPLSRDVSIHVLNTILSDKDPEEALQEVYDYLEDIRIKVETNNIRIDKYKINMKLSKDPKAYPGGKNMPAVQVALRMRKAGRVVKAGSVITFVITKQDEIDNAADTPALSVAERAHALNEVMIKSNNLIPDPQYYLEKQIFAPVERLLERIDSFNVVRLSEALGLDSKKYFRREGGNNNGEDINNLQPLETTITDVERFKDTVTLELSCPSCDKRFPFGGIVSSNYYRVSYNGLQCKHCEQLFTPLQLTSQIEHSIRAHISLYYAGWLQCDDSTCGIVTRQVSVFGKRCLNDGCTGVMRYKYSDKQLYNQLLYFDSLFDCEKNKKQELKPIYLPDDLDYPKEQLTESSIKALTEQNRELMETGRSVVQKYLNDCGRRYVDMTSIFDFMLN

wild-type GST-Mcm10 = target: T4, wild-type GST-Mcm10 (Saccharomyces cerevisiae, UniProt P32354 1-571); assay: pull-down
T4 sequence: T1 sequence

[1] = target: radiolabeled PKA-Mcm2–7 complex (budding yeast (S. cerevisiae), UniProt P29469;P24279;P30665;P29496;P53091;P38132); assay: pull-down
GST-Cdc45 = target: T5, GST-Cdc45 (budding yeast (S. cerevisiae), UniProt Q08032 1-650); assay: pull-down
T5 sequence: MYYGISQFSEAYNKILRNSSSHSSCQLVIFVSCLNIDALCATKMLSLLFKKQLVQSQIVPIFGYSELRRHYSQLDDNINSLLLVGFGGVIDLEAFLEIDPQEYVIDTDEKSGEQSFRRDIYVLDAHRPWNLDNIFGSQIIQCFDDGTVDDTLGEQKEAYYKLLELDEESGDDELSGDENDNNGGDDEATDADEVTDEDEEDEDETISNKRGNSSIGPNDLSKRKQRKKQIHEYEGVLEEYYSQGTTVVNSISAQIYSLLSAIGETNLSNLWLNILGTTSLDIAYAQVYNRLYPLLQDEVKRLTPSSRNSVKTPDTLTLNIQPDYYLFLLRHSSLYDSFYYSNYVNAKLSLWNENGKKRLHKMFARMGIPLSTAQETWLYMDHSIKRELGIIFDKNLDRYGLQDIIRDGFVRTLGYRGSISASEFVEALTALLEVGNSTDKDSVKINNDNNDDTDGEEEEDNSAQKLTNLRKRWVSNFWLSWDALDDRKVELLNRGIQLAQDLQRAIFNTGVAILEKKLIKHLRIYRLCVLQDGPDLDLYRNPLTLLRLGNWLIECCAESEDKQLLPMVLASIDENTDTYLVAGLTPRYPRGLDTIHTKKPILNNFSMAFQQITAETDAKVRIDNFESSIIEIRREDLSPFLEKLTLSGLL

GST-Dbf4 = target: T6, GST-Dbf4 (budding yeast (S. cerevisiae), UniProt P32325 1-704); assay: pull-down
T6 sequence: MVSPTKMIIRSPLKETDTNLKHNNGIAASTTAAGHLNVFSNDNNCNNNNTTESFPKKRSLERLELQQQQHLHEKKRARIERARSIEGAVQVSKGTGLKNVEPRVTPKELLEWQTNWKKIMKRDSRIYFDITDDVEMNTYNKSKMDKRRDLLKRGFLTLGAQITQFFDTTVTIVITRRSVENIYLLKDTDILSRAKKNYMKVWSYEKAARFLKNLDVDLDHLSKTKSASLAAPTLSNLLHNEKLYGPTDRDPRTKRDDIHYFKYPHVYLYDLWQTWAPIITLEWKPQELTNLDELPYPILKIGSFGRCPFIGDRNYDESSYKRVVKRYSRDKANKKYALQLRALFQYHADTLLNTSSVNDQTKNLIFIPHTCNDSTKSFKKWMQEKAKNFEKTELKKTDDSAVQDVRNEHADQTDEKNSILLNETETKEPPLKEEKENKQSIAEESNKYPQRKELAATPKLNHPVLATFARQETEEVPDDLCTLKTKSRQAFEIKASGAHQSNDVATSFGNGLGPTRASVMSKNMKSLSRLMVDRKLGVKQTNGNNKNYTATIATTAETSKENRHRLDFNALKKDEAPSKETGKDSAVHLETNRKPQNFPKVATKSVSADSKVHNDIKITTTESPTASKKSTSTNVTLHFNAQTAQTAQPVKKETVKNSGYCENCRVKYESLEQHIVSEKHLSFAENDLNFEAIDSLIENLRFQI

B1: 80mer ssDNA (80dT) (ssDNA)
DNA: TTTTTTTTTTTTTTTTTTTTTTTTTTTTTTTTTTTTTTTTTTTTTTTTTTTTTTTTTTTTTTTTTTTTTTTTTTTTTTTT
binding result (GST-Mcm10 (wild type)): binds

Binder: ATGTCCTAGCAAGCCAGAATTCGGC (ssDNA) [25mer ssDNA]
binding result (GST-Mcm10-4A): binds | binding result (GST-Mcm10 (wild type)): binds

binding result (GST-p180): binds | binding result (wild-type GST-Mcm10): binds
B2: radiolabeled wild-type PKA-Mcm10 (natural protein)
chain: T1 sequence
modifications: 32P label put on the PKA tag by protein kinase A with [gamma-32P]-ATP

binding result [1]: binds
B3: GST-Mcm10-4A (Mcm10-I26A-L30A-R37A-L40A) (natural protein)
chain: T1 sequence with I26A, L30A, R37A, L40A

binding result (GST-Cdc45): binds | binding result (GST-Dbf4): binds | binding result (GST-p180): binds
B4: radiolabeled PKA-Mcm10-4A (Mcm10-I26A-L30A-R37A-L40A) (natural protein)
chain: T1 sequence with I26A, L30A, R37A, L40A
modifications: 32P label put on the PKA tag by protein kinase A with [gamma-32P]-ATP

B5: blunt dsDNA (called 30mer) (dsDNA)
DNA 1: ATGTCCTAGCAAGCCAGAATTCGGCAGCGTC
DNA 2: GACGCTGCCGAATTCTGGCTTGCTAGGACAT
binding result (GST-Mcm10 (wild type)): binds
